Our source for the self-cleavage values is the RNAGym collection of RNA variant scans (doi:10.7554/elife.80360).

Sequences and labels used below:
B1: HDV Ribozyme (parent)
chain: GGCCGGCAUGGUCCCAGCCUCCUCGCUGGCGCCGGCUGGGCAACAUUCCGAGGGGACCGUCCCCUCGGUAAUGGCGAAUGGGACCCA

In this data set the parent is B1. Nature of the data set: self-cleavage, relative activity (ratio to wild type); higher = more cleavage; co-transcriptional.
For the variant A8U U65G, the self-cleavage came to 0.748. As to A8U C57G, the self-cleavage amounted to 1.07. As to C64G U69G, the self-cleavage came to 0.91. In the case of G29A G80U it was 0.0283; in that of A42U G50A, 0.383.

In the case of U9G C24G, the self-cleavage came to 0.453. As to A51U C63G, the self-cleavage turned out to be 0.208. In the case of G25U C63G it was 0.203; in that of C26G A70U, 0.875; in that of G29A G59A, 0.179. With G31A U79A, the self-cleavage was determined as 0.169. Regarding U9G U46C, the self-cleavage worked out at 0.748. Regarding U72G G82U, the self-cleavage came to 0. As for A8G C32A, the self-cleavage was 0.0852. On to C32A C86U, for which the self-cleavage turned out to be 0.147. In the case of C15A G68U it was 0.309; in that of C75G G81A, 0.0332; in that of U20A C26G, 0. With G35A G53U, the self-cleavage came to 0.736. In the case of G6A G59A, the self-cleavage was 0.776. Consider U65A G68A, for which the self-cleavage turned out to be 0.641.

As for U20G G59C, the self-cleavage worked out at 0.361. Consider A42U U47C, for which the self-cleavage amounted to 0.394. Take G25A G28U: the self-cleavage stood at 0.0185. U9G G81A: the self-cleavage turned out to be 0.8. In the case of G2A A70C it was 0.157; in that of A16C C21U, 0.199; in that of C26A G28A, 0.166.

As for C3U C15G, the self-cleavage stood at 0.6. In the case of A56C G67A it was 1.05; in that of G25A C63U, 0.289. Under G25A G53A stands 0.245. On to G17U G50U, for which the self-cleavage turned out to be 0.609. As for G28A G35C, the self-cleavage came to 0.153.

Consider U60A A83U, for which the self-cleavage came out at 0.356. Turning to C48A A78G, the self-cleavage was determined as 0.776. In the case of C33U C86G it was 0.884. Under G29A U79A stands 0.166; under U27C G59U, 0.76. In the case of C24U G52U, the self-cleavage worked out at 0.694. Take C7G U69A: the self-cleavage is 0.237. As for C14U U46G, the self-cleavage stood at 0.875. As to C14A U47C, the self-cleavage is 0.415. On to G40U G74C, for which the self-cleavage was 0.111.

Regarding A71G A78U, the self-cleavage is 0.229. Under C19U C66A stands 0.182; under G1C U72C, 0.111. Take C75A U79G: the self-cleavage was 0.208.

As for C21G G31U, the self-cleavage came to 0.

Take G11A G74C: the self-cleavage came to 0.0723.

C19A G55C: the self-cleavage worked out at 0.0489. On to G5U C61A, for which the self-cleavage came out at 0.399. In the case of A42G C61A it was 0.779; in that of G50C G74A, 0.471; in that of U20C U46G, 0. For the variant U37G A77U, the self-cleavage worked out at 0.138. Consider A16G G17A, for which the self-cleavage was 0.617. For the variant G74A A77U, the self-cleavage came out at 0.267. Turning to U60A C62G, the self-cleavage was 0.997. Turning to C66U, the self-cleavage was found to be 1.01. C24A G28U: the self-cleavage worked out at 0.0386.

Turning to C14G G35U, the self-cleavage is 0. For the variant C4A U27A, the self-cleavage was 0.189.

For C19U C61U, the self-cleavage amounted to 0.0898. Under C49A G74A stands 0.288.

Regarding G5A C48A, the self-cleavage turned out to be 0.0437. In the case of C26A C57U, the self-cleavage was determined as 0.959. With C66G A87G, the self-cleavage was determined as 1.06. C13G A83C: the self-cleavage was found to be 0.222. As to G34U C66U, the self-cleavage is 0.166. As for C48U G54C, the self-cleavage was found to be 1.2.

Consider C30A U47A, for which the self-cleavage turned out to be 0.486. As to C57A C86G, the self-cleavage worked out at 0.89. In the case of C22U G53C it was 0.63; in that of G31U G38C, 0.148. In the case of G2A U72G, the self-cleavage turned out to be 0.0906. For C24A A43C, the self-cleavage worked out at 0.0415. In the case of A43C U60G it was 0.68.

Take G10U G17C: the self-cleavage stood at 0.359. Take G38U G74U: the self-cleavage was determined as 0.14. In the case of G35A C85U it was 0.541. As to C32G C63U, the self-cleavage was found to be 0.112. As for A42G G53C, the self-cleavage was 0.391. For the variant A70C U72C, the self-cleavage was 0.369. As to G28A C84U, the self-cleavage was 0.0744. For the variant C41A U47G, the self-cleavage worked out at 1.08. In the case of C18U A78G it was 0.285; in that of A56U C66U, 0.923; in that of A8U G29C, 0.0554.

As to C32G A42G, the self-cleavage came out at 0.0426. In the case of A56G G80C it was 0.259. For the variant G55A U79A, the self-cleavage was determined as 0.582. For the variant G5U G25C, the self-cleavage was found to be 0.

Consider U12C U47C, for which the self-cleavage was found to be 0.185.

C30A G35A: the self-cleavage was determined as 0.244. Take C24U A51C: the self-cleavage is 0.767. In the case of G53U C75U, the self-cleavage worked out at 0.277. For U12C U46A, the self-cleavage turned out to be 0. As to G25U G35A, the self-cleavage worked out at 0.0415. Regarding C13G U69G, the self-cleavage turned out to be 0.111. In the case of G2C C57U, the self-cleavage worked out at 0.073. For the variant G17A U20C, the self-cleavage was found to be 0.268. Under C21G A87C stands 0.0594.

U65C C86G: the self-cleavage was found to be 1.18. Under C4U G17C stands 0.147; under A8U C62U, 0.989; under C49G G67C, 1.22. Turning to C4U U47A, the self-cleavage was 0.739. Turning to C15G U60G, the self-cleavage came out at 0.712. Consider C7A U69A, for which the self-cleavage is 0.449. In the case of G40C A43G, the self-cleavage turned out to be 0.136. For C30A G52U, the self-cleavage came to 0.532.

C33A C66A: the self-cleavage was determined as 0.485.

Take C32U U37C: the self-cleavage turned out to be 1.29.

In the case of U47G U60A, the self-cleavage was 1.33. For U60A C84G, the self-cleavage came out at 0.475. For the variant G53C C84G, the self-cleavage worked out at 0.696. On to C24G C41U, for which the self-cleavage is 0.102. In the case of G50U C84A, the self-cleavage was 0.974. As for G1A C75G, the self-cleavage was determined as 0.108. Turning to G17A A71U, the self-cleavage is 0.499. For the variant G38C G39C, the self-cleavage was found to be 0.0426.

For U47A C48U, the self-cleavage is 0.923. Turning to C18A C32A, the self-cleavage amounted to 0.106. In the case of G10A U69C it was 0.997; in that of C18A G67U, 0.117.

On to C15A C75A, for which the self-cleavage was found to be 0.115.

As for C13G C21U, the self-cleavage amounted to 0.141. For C33A G35U, the self-cleavage was 0.137.

Consider U46C A56C, for which the self-cleavage turned out to be 0.609.

G5U G34U: the self-cleavage stood at 0.0426.

Turning to U60G U72C, the self-cleavage was 0.489.

On to G11U G50C, for which the self-cleavage is 0.359. Regarding G53A C62A, the self-cleavage was 1.05. Take A8G A45G: the self-cleavage stood at 0.9. Consider U12C G76C, for which the self-cleavage was found to be 0.364. In the case of C3U G11U, the self-cleavage came to 0.138. As to A56U C75U, the self-cleavage came to 0.237. Regarding A71C G80C, the self-cleavage turned out to be 0.302. On to C13G C18G, for which the self-cleavage stood at 0.138.

In the case of G11C C61G, the self-cleavage came to 0.217. As to U12A U69C, the self-cleavage was determined as 0.35. Regarding A45U A56C, the self-cleavage came to 0.806. Turning to G1A A42U, the self-cleavage worked out at 0.123.

With C13G U27C, the self-cleavage came out at 0.262. Turning to C26G U60G, the self-cleavage is 0.525.

For G2A C86U, the self-cleavage is 0.277. On to C36A U65G, for which the self-cleavage turned out to be 0.394. On to G39U A87G, for which the self-cleavage was found to be 0.661. As for A77U A83C, the self-cleavage was determined as 0.231. Take G29A U69G: the self-cleavage was determined as 0.0475.

Turning to G11C C14U, the self-cleavage came to 0.285.

As to G10A A51U, the self-cleavage is 0.923. In the case of G1U C19U, the self-cleavage is 0.28. Under G29A U47C stands 0.16; under C14G C66U, 0.831.

As to A56C C85U, the self-cleavage stood at 1.01. As to C22A A43G, the self-cleavage came out at 0.151.

In the case of C18A G52U, the self-cleavage was found to be 0.237. For the variant C75U G81C, the self-cleavage worked out at 0.16. G35A G40U: the self-cleavage was determined as 0.42. Regarding C57G G81C, the self-cleavage amounted to 0.177.

On to G1A A45U, for which the self-cleavage is 0.208. Consider G25C C26G, for which the self-cleavage came to 0.731.

As for C49U C64A, the self-cleavage was determined as 0.739.

In the case of C21G C33G, the self-cleavage was found to be 0.101. In the case of C61U C66U, the self-cleavage was determined as 0.736.
